{
  "source": "paper PMC4303232",
  "molecular_target": "FADD (UniProt Q13158)",
  "experiment": "anti-flag immunoprecipitation, immunoblot",
  "conditions": "reference: wild type; sites S116",
  "data": [
    {"substance": "PEA15 (from UniProt Q15121) S116A", "values": [
      {"measurement": "binding against the reference", "value": "weaker"}
    ]}
  ]
}
